# Assay results taken from patent US7982017B2, “Antibodies recognizing a carbohydrate containing epitope on CD-43 and CEA expressed on cancer cells and methods using same” (BioAlliance C.V., priority 2007, dated 2011).
# What was measured:
# COLO 205 cells [1] = assay: Binding assay: flow cytometric binding of 5F1 antibodies to COLO 205 cells; conditions: for binding to Colo 205 (words): FIG. 3, 0.125 to 4 ug/ml
# Method: Purified m5F1, c5F1-v0, c5F1-v15 and c5F1-v16 antibodies at the concentration ranging from 0.125 to 4 ug/ml were added to 1.5×10^5 COLO 205 cells and incubated for 30 min at 4° C., washed for twice with PBS containing 2% FBS and 0.05% NaN3, followed by incubation with 1 μg/ml of corresponding secondary antibodies (R-PE-conjugated goat F(ab′)2 anti-mouse IgG(H+L), Southern Biotech, Cat. No. 1032-09; or R-PE-conjugated goat anti-human IgG, Southern Biotech, Cat. No. 2040-09) at 4° C. for 30 min. At the end of staining, samples were washed twice with PBS containing 2% FBS and 0.05% NaN3 and analyzed by flow cytometer. All flow cytometric analyses were performed on a BD-LSR flow cytometer (Becton Dickinson) using the Cell Quest software.
# Purified m5F1, c5F1-v0, c5F1-yl7, c5F1-v24 and c5F1-v25 antibodies at 1 ug/ml were added to 2×10^5 Colo 205 cells and incubated for 30 min at 4° C., washed for twice with PBS containing 1% FBS, followed by incubation with 1 ug/ml of corresponding secondary antibodies (R-PE-conjugated goat F(ab′)2 anti-mouse IgG(H+L), Southern Biotech, Cat. No. 1032-09; or R-PE-conjugated goat anti-human IgG, Southern Biotech, Cat. No. 2040-09) at 4° C. for 30 min. At the end of staining, samples were washed twice with PBS containing 1% FBS and 0.05% NaN3 and analyzed by flow cytometer. All flow cytometric analyses were performed on a BD-LSR flow cytometer (Becton Dickinson) using the Cell Quest software.
# COLO 205 cells [2] = assay: Six-hour apoptosis assay (Annexin V / PI, FACS) in COLO 205; assay type: cell-based; conditions: 6 h
# Method: (§1) 1.5×10^5 of COLO 205 cells were seeded into the wells of 96-well plates. Aliquots of purified m5F1, c5F1-v0, c5F1-v15, c5F1-v16 and control antibodies at the concentration ranging from 2 to 32 ug/ml were prepared freshly in culture medium and added to each well. The sample treated with m9E10 and h16C11A were used as isotype control. The treated cells were kept at 37° incubator for 6 h before FACS analysis for apoptosis. For cellular apoptosis assay, Annexin V staining was measured using Annexin-V-FITC Apoptosis Detection Kit (Strong Biotech, Cat. No. AVK250) following the manufacturer's instruction. In brief, the treated cells were harvested and resuspended in Annexin V binding buffer containing Annexin V-FITC at room temperature. After 15 min incubation in the dark, the cells were washed twice with 200 μl of Annexin V binding buffer. Before FACS analysis, 0.25 μg/ml of propidium iodide (PI) was added. All flow cytometric analyses were performed on a BD-LSR flow cytometer (Becton Dickinson) using the Cell Quest software. The Annexin VI positive and/or PI positive cells are considered apoptotic cells.
# 1.5×10^5 of Colo205 cells were seeded into the wells of 96-well plates. Aliquots of purified m5F1, c5F1, c5F1-v17, c5F1-v24, c5F1-v25 and control antibodies at the concentration ranging from 8 to 32 ug/ml were prepared freshly in culture medium and added to each well. The treated cells were kept at 37° incubator for 6 h before FACS analysis for apoptosis. For cellular apoptosis assay, Annexin V staining was measured using Annexin-V-FITC Apoptosis Detection Kit (Strong Biotech, Cat. No. AV 250) following the manufacturer's instruction. In brief, the treated cells were harvested and resuspended in Annexin V binding buffer containing Annexin V-FITC at room temperature. After 15 min incubation in the dark, the cells were washed twice with 200 ul of Annexin V binding buffer. Before FACS analysis, 0.25 ug/ml of propidium iodide (PI) was added. All flow cytometric analyses were performed on a BD-LSR flow cytometer (Becton Dickinson) using the Cell Quest software. The Annexin VI positive and/or PI positive cells are considered apoptotic cells.
# SU.86.86 cells [3] = assay: Binding to SU.86.86 pancreatic cancer cells by flow cytometry
# Method: Purified m5F1 and control antibodies at 1 ug/ml were added to 2×10^5 SU.86.86 cells and incubated for 1 hour at 4° C., washed twice with PBS containing 1% FBS, followed by incubation with 1 ug/ml of corresponding secondary antibodies (R-PE-conjugated goat F(ab′)2 anti-mouse IgG(H+L), Southern Biotech, Cat. No. 1032-09) at 4° C. for 1 hour. At the end of staining, samples were washed twice with PBS containing 1% FBS and analyzed by flow cytometer. All flow cytometric analyses were performed on a BD-LSR flow cytometer (Becton Dickinson) using the Cell Quest software.
# (§2) Binding experiments were carried out for antibodies c5F1.v15, c5F1.v16, and c5F1.v24. […] Apoptosis assay was carried out for antibody c5F1.v15.
# SU.86.86 cells [4] = assay: Apoptosis induction of SU.86.86 cells (6 h, Annexin V / PI); assay type: cell-based
# Method: as §1, with “2×10^5” for “1.5×10^5”, “SU86.86” for “COLO 205”, “12-well” for “96-well”, “m5F1” for “m5F1, c5F1-v0, c5F1-v15, c5F1-v16 and control antibodies”, “Control antibody at 32 ug/ml was included for background signal measurement.” for “The sample treated with m9E10 and h16C11A were used as isotype control.”
# as §2
molecule,measurement,setting,value
"m5F1: murine antibody 5F1, isotype murine IgG3; heavy chain V region SEQ ID NO:1, light chain V region SEQ ID NO:2 (antibody, V domains shown, Murine) VH: MEWSWIFLFLLSGTAGVHSEVQLQQSGPELVKPGASVRMSCTASGYTFTSYVMHWIKQKPGQGLDWIGYINPYNGGTQYNEKFKGKATLTSDKSSSTAYMELSSLTSEDSAVYYCARRTFPYYFDYWGQGTTLTVSS VL: MKLPVRLLVLMFWIPASSSDVLMTQTPLSLPVSLGDQASISCRSSQSILHSNGNTYLEWYLQKPGQSPKLLIYKVSNRFSGVPDRFSGSGSGTDFTLKISRVEAEDLGVYYCFQGSHAPLTFGAGTKLELK",binding to Colo 205 (words),COLO 205 cells [1],significant binding
same,Median Fluorescence Intensity (MFI),"COLO 205 cells [1]; Table 10, antibodies at 1 ug/ml",800
same,% of Annexin V and/or PI positive cells,"COLO 205 cells [2]; Table 7, 2 ug/ml",35%
same,% of Annexin V and/or PI positive cells,"COLO 205 cells [2]; Table 7, 4 ug/ml",53%
same,% of Annexin V and/or PI positive cells,"COLO 205 cells [2]; Table 7, 8 ug/ml",76%
same,% of Annexin V and/or PI positive cells,"COLO 205 cells [2]; Table 7, 16 ug/ml",92%
same,% of Annexin V and/or PI positive cells,"COLO 205 cells [2]; Table 7, 32 ug/ml",93%
same,% of Annexin V and/or PI positive cells,"COLO 205 cells [2]; Table 11 Exp. 1, 8 ug/ml",88%
same,% of Annexin V and/or PI positive cells,"COLO 205 cells [2]; Table 11 Exp. 1, 16 ug/ml",92%
same,% of Annexin V and/or PI positive cells,"COLO 205 cells [2]; Table 11 Exp. 1, 32 ug/ml",92%
same,% of Annexin V and/or PI positive cells,"COLO 205 cells [2]; Table 11 Exp. 2, 8 ug/ml",89%
same,% of Annexin V and/or PI positive cells,"COLO 205 cells [2]; Table 11 Exp. 2, 16 ug/ml",94%
same,% of Annexin V and/or PI positive cells,"COLO 205 cells [2]; Table 11 Exp. 2, 32 ug/ml",96%
same,binding to SU.86.86 cells,SU.86.86 cells [3],could bind
same,MFI,"SU.86.86 cells [3]; Table 14, antibody at 1 ug/ml",131
same,% of Annexin V and/or PI positive cells,SU.86.86 cells [4]; 2 ug/ml,60%
same,% of Annexin V and/or PI positive cells,SU.86.86 cells [4]; 4 ug/ml,72%
same,% of Annexin V and/or PI positive cells,SU.86.86 cells [4]; 8 ug/ml,78%
same,% of Annexin V and/or PI positive cells,SU.86.86 cells [4]; 16 ug/ml,89%
same,% of Annexin V and/or PI positive cells,SU.86.86 cells [4]; 32 ug/ml,91%
same,apoptosis induction in SU.86.86 cells,SU.86.86 cells [4]; 2 to 32 ug/ml,induced apoptosis
"c5F1-v16: chimeric 5F1, heavy chain v16 (hinge C220S), light chain v0[L] (antibody) heavy: EVQLQQSGPELVKPGASVRMSCTASGYTFTSYVMHWIKQKPGQGLDWIGYINPYNGGTQYNEKFKGKATLTSDKSSSTAYMELSSLTSEDSAVYYCARRTFPYYFDYWGQGTTLTVSSASTKGPSVFPLAPSSKSTSGGTAALGCLVKDYFPEPVTVSWNSGALTSGVHTFPAVLQSSGLYSLSSVVTVPSSSLGTQTYICNVNHKPSNTKVDKKVEPKSSDKTHTCPPCPAPELLGGPSVFLFPPKPKDTLMISRTPEVTCVVVDVSHEDPEVKFNWYVDGVEVHNAKTKPREEQYNSTYRVVSVLTVLHQDWLNGKEYKCKVSNKALPAPIEKTISKAKGQPREPQVYTLPPRDELTKNQVSLTCLVKGFYPSDIAVEWESNGQPENNYKTTPPVLDSDGSFFLYSKLTVDKSRWQQGNVFSCSVMHEALHNHYTQKSLSLSPGK light: DVLMTQTPLSLPVSLGDQASISCRSSQSILHSNGNTYLEWYLQKPGQSPKLLIYKVSNRFSGVPDRFSGSGSGTDFTLKISRVEAEDLGVYYCFQGSHAPLTFGAGTKLELKRTVAAPSVFIFPPSDEQLKSGTASVVCLLNNFYPREAKVQWKVDNALQSGNSQESVTEQDSKDSTYSLSSTLTLSKADYEKHKVYACEVTHQGLSSPVTKSFNRGEC",binding to Colo 205 (words),COLO 205 cells [1],relatively less compared to c5F1
same,binding to Colo 205 (words),COLO 205 cells [1]; listed as c5F1v16,significant binding
same,apoptosis-inducing activity in COLO 205,"COLO 205 cells [2]; 2 to 32 ug/ml, compared with m5F1",almost as efficient as m5F1
same,% of Annexin V and/or PI positive cells,"COLO 205 cells [2]; Table 7, 4 ug/ml",58%
same,% of Annexin V and/or PI positive cells,"COLO 205 cells [2]; Table 7, 8 ug/ml",78%
same,% of Annexin V and/or PI positive cells,"COLO 205 cells [2]; Table 7, 16 ug/ml",92%
same,% of Annexin V and/or PI positive cells,"COLO 205 cells [2]; Table 7, 32 ug/ml",96%
same,binding to SU.86.86 cells,SU.86.86 cells [3],significant binding
